This note sets out measurements from publication PMC7913776 (Nucleic Acids Research, 2021).

This assay concerns the target T1, GST-tagged full-length BACH1 protein (mouse, UniProt P97302 1-739).
T1 sequence: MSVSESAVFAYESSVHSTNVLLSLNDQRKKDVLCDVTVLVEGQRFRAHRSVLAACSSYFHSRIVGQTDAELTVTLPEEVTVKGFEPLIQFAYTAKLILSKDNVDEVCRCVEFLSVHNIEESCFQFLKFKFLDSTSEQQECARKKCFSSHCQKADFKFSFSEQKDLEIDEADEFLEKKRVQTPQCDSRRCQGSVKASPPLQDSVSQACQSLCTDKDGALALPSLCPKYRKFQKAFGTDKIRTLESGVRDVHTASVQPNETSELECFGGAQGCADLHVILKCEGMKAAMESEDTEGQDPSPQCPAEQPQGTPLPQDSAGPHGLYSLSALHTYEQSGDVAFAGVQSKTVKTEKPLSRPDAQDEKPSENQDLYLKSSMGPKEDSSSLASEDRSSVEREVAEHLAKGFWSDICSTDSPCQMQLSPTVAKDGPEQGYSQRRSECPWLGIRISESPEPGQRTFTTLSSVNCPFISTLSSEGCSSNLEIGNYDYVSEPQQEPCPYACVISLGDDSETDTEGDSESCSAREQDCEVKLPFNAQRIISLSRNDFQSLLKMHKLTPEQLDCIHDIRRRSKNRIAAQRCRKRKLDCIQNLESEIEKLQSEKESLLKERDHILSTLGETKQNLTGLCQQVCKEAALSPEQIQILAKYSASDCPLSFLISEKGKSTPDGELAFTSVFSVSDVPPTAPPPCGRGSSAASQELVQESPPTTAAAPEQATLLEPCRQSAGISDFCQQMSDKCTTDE
The assay can be described thus: pull-down.

B1: HIS-tagged NANOG (natural protein)
chain: MSVGLPGPHSLPSSEEASNSGNASSMPAVFHPENYSCLQGSATEMLCTEAASPRPSSEDLPLQGSPDSSTSPKQKLSSPEADKGPEEEENKVLARKQKMRTVFSQAQLCALKDRFQKQKYLSLQQMQELSSILNLSYKQVKTWFQNQRMKCKRWQKNQWLKTSNGLIQKGSAPVEYPSIHCSYPQGYLVNASGSLSMWGSQTWTNPTWSSQTWTNPTWNNQTWTNPTWSSQAWTAQSWNGQPWNAAPLHNFGEDFLQPYVQLQQNFSASDLEVNLEATRESHAHFSTPQALELFLNYSVTPPGEI
Regarding B1, the binding result is on record as “binds”.
